Where two headings read alike, the source gives them in different places.
What was measured:
[1] = biological target: biotinylated H3(1-20)K9me2 peptide; experiment: Kme-OPL pulldown fluorescence assay (GST-tagged reader domain); settings: parent: est. 1300; read off a plot
[2] = biological target: FAM-KAK(Kme3)TGK peptide (human); experiment: fluorescence polarisation; protein serially diluted with 10 nM FAM peptide; 25 mM HEPES pH 7.5, 100 mM NaCl, 0.05% NP-40; anisotropy fitted by specific binding with Hill slope
[3] = biological target: FAM-KAK(Kme3)TGK peptide (human); experiment: as above; remark: listed apart in the source
[4] = biological target: FAM-TAR(Kme3)STG peptide (H3K9me3); experiment: as above
[5] = biological target: FAM-WAY(Kme3)TGK peptide; experiment: as above

Sequence of M Phase Phosphoprotein 8 chromodomain (Q99549 55-116): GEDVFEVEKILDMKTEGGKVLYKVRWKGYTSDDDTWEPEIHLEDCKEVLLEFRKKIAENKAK

Row | response (RFU (GST-subtracted fluorescence)) [1] | Kd [2] | fold tighter than the H3K9me3 peptide [2] | Kd [3] | Kd [4] | fold tighter than the H3K9me3 peptide [5] | Substance
1 | 150 |  |  |  |  |  | M Phase Phosphoprotein 8 chromodomain (from UniProt Q99549) W80A
2 |  | 840 nM | 10 fold | 660 nM | 5400 nM |  | M Phase Phosphoprotein 8 chromodomain (from UniProt Q99549 55-116) (domain or fragment)
3 |  | 3600 nM |  |  |  | 100 fold | Chromodomain Y-like protein 2 chromodomain (domain or fragment)
